Measured values as given in US20020168706A1.

Target: purified RecBCD protein (Plasmid-Safe ExoV, Epicentre) (E. coli) (UniProt P08394)
Assay: cell-based or functional assay

UniProt P08394, sequence (P08394 2-1180 limits assumed, chain 1 of 3): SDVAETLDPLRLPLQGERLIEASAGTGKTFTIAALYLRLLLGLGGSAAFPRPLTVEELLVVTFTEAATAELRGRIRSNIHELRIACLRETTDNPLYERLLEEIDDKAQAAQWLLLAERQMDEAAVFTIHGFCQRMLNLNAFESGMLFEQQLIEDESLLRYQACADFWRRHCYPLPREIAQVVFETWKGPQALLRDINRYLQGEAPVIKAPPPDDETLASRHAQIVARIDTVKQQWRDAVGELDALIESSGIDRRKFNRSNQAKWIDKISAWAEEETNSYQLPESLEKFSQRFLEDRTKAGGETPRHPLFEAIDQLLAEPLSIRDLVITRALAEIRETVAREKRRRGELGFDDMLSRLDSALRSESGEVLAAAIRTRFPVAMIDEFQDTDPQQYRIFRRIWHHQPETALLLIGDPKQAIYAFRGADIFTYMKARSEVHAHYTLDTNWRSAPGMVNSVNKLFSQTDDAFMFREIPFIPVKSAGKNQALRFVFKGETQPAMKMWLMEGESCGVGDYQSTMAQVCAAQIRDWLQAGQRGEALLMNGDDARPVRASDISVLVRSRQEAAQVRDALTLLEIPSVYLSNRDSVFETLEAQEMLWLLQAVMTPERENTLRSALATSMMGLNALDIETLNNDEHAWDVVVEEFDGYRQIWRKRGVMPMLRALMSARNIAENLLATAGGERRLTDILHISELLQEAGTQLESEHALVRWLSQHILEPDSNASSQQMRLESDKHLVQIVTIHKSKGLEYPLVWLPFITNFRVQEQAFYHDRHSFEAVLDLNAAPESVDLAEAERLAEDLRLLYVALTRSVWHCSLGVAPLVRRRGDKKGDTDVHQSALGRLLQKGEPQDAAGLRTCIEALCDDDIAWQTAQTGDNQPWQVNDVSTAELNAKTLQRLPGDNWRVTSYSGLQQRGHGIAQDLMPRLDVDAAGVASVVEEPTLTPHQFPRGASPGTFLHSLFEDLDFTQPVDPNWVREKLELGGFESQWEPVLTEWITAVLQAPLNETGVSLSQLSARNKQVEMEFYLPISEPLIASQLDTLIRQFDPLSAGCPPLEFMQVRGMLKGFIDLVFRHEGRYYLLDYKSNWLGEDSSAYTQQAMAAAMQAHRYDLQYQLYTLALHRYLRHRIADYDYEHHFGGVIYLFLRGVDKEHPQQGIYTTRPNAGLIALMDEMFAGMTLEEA
UniProt P08394, sequence (P07648 whole entry, chain 2 of 3, further chain): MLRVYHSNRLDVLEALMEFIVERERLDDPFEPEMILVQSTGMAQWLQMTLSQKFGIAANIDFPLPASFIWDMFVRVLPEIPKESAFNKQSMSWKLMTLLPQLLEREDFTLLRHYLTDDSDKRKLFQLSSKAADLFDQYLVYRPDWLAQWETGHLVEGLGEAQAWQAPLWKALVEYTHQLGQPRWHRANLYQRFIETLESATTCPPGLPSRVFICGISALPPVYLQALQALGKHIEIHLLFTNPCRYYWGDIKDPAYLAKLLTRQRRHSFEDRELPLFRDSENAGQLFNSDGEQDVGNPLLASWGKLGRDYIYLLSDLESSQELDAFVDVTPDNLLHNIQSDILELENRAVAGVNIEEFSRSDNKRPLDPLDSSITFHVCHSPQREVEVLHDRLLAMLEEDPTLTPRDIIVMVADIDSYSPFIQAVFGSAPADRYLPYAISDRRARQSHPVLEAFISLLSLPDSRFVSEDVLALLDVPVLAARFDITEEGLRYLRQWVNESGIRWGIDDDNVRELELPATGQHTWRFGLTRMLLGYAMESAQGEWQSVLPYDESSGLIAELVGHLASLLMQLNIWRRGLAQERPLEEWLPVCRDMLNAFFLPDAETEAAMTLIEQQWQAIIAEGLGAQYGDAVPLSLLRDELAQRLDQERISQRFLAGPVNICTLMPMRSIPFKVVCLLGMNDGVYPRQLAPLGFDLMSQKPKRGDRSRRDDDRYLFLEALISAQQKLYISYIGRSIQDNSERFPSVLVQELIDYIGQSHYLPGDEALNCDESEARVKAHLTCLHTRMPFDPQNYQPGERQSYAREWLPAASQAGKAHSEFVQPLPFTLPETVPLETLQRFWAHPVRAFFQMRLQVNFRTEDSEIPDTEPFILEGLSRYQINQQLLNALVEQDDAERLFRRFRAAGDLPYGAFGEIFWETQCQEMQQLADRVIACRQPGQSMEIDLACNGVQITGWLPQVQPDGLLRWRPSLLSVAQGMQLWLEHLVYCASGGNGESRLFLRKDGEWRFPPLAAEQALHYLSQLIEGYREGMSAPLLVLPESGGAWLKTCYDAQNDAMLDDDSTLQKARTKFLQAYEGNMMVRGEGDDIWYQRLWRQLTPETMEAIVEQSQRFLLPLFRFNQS
UniProt P08394, sequence (P04993 whole entry, chain 3 of 3, further chain): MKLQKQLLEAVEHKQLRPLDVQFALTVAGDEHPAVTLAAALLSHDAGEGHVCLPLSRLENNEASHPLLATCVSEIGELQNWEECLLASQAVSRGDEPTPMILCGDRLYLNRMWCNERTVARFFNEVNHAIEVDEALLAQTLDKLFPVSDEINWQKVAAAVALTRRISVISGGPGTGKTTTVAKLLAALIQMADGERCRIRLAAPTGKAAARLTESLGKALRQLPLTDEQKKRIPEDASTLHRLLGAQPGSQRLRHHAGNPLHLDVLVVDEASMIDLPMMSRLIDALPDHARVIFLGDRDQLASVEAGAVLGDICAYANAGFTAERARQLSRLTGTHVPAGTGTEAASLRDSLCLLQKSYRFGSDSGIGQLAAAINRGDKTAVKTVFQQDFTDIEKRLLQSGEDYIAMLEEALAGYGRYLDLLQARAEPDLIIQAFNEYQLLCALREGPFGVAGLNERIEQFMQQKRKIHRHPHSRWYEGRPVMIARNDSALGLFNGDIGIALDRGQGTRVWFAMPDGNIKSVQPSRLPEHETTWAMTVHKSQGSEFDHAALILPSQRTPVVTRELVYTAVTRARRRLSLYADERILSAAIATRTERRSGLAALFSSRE

In the case of “GamS (short form of the bacteriophage lambda Gam protein, expressed from pLDE136, partially purified MonoQ pool) (from UniProt P03702 1-98)”, the specific activity of GamS in the Gam-mediated RecBCD inhibition assay is reported as 160 to 200 U/µg.
